Changes are numbered by the printed parent chain.
Key:
[1] = molecular target: T1, Pot1-DBD (Schizosaccharomyces pombe, UniProt O13988 1-339); experiment: EMSA
T1 sequence: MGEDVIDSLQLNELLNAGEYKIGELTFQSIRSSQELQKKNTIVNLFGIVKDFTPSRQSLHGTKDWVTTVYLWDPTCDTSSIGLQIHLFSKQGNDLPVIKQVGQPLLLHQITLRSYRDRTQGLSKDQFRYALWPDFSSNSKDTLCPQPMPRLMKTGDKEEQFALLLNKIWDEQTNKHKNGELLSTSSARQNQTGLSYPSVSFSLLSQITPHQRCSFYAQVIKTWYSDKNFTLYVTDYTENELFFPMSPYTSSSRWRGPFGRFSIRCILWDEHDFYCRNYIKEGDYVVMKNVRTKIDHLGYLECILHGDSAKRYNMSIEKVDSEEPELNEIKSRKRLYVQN

[2] = molecular target: T2, Pot1-DBD_Y224A (Schizosaccharomyces pombe, UniProt O13988 1-339, Y224A); experiment: SEC-MALS
T2 sequence: T1 sequence with Y224A

[3] = molecular target: T1, Pot1-DBD; experiment: NMR
[4] = molecular target: T1, Pot1-DBD; experiment: SEC-MALS
[5] = molecular target: T3, Pot1pN (Schizosaccharomyces pombe, UniProt O13988 1-187); experiment: NMR
T3 sequence: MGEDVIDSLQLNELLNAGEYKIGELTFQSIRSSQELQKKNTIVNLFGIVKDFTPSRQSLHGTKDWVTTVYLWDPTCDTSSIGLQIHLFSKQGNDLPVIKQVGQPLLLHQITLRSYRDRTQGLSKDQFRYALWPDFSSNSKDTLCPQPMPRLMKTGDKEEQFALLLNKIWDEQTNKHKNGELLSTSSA

[6] = molecular target: T4, Pot1pC_Y224A (Schizosaccharomyces pombe, UniProt O13988 198-339, Y224A); experiment: ITC
T4 sequence: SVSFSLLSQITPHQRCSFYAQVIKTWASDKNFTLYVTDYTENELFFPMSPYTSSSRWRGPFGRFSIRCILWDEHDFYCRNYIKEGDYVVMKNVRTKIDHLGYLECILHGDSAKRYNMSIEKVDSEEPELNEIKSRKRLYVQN

[7] = molecular target: T5, Pot1pC (Schizosaccharomyces pombe, UniProt O13988 198-339); experiment: NMR
T5 sequence: T4 sequence with A27Y

[8] = molecular target: T1, Pot1-DBD; experiment: SEC-MALS; remark: listed apart in the source

GGTTACGGTTAC (ssDNA) [12mer]: binds [1].

GGTTACGGTTACGGT (ssDNA) [15mer]: binds [2]; binds [3].

GGTTACGGATAC (ssDNA) [12mer_T9A]: binds [4].

GGTTAC (ssDNA) [6mer]: binds [5].

In the case of GGTTACGGT (ssDNA) [9mer], the binding signal [6] is reported as ~10 fold weaker than Pot1pC wild type and the binding result [7] is reported as “binds”.

GGTTACGGTTACCGT (ssDNA) [15mer_G13C]: binds [8].

— article PMC4150783
